{
  "source": "patent US20070128672A1",
  "about": "(ST VINCENT S HOSPITAL SYDNEY, published 2007)",
  "data": [
    {"biological_target": "tetanus toxoid (UniProt P04958 2-1315)", "sequence (P04958 2-457 limits assumed, chain 1 of 2)": "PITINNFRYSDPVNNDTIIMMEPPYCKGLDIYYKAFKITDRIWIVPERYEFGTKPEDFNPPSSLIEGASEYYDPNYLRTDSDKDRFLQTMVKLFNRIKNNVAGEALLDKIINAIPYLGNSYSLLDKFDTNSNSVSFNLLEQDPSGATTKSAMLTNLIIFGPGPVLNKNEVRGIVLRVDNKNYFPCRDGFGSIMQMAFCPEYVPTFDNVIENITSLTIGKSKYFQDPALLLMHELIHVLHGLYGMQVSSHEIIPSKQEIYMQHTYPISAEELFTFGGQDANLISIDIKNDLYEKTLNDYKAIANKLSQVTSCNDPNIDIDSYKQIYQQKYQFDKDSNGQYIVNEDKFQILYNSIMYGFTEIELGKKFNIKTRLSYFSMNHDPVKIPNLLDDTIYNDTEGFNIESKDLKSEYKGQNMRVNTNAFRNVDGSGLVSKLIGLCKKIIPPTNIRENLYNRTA", "sequence (P04958 458-1315 limits assumed, chain 2 of 2)": "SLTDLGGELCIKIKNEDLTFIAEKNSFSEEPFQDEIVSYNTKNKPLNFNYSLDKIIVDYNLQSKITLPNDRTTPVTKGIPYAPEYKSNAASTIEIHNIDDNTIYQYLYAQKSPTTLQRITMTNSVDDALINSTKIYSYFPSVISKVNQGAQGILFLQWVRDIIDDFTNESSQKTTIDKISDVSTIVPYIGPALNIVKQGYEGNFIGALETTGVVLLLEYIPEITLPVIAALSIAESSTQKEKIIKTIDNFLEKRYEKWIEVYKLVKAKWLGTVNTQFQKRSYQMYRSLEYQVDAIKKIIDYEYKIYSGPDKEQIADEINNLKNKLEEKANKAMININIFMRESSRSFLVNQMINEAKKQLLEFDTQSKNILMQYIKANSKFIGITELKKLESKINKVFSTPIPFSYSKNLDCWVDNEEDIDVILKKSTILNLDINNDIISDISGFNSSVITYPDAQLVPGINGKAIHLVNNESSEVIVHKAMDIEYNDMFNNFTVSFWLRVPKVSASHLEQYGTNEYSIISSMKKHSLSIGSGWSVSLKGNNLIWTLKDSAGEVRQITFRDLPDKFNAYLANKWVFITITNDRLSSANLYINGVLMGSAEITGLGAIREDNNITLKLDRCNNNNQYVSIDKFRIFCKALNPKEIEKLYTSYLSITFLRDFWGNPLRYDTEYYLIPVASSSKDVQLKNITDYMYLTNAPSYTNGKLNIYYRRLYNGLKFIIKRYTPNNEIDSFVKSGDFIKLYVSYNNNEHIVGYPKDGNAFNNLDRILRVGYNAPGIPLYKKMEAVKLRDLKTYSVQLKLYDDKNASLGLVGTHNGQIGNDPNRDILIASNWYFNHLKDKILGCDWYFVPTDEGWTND", "experiment": "ELISA, crude Fab supernatant, detected with 9E10", "values": [
      {"binder": "Fab clone 163.1 (Fab, V domains shown, myc tag on the C terminus of the heavy chain) VH: VQLLEQSGAEMKRPGASVTISCQASRQTFSGQYIHWVRQAPGQGLEWMGVINPSGGSANYAPSFQGRLSMSRDASTNTVYMKLSSLTSEDTAVYYCLSQALKYWGQGTLVAVSS VL: AAELTQSPDSLAVSLGERATINCKSNQSVLYNSNSKNYLAWYQQKPGQPPKLLIYWASTRESGVPDRFSGSGSGTDFTLTITSLQAEDVAVYYCQQYFSSPYTFGQGTKLEIK", "binding result": "no binding (tested: antigen coated at 1 µg/ml)"},
      {"binder": "Fab clone 163.5 (Fab, V domains shown) VH: VQLLEQSGAEVKRPGASVTISCQASRQDFSGQYIHWVRQAPGQGFEWMGIINPSGGSANYAPKFKGRLTMSRDSSTDTVYMTLTSLTSEDTAVYYCLLQALKHWGQGTLVAVSS VL: AAELTQSPDSLAVALGERATINCKSSQSVLYSLNNKNYLAWYQQKPGQPPKLLIHWASTRESGVPDRFSGSGSETDFTLTISSLQAEDVAVYYCQQYYTTPYTFGQGTKLEIK", "binding result": "no binding (tested: antigen coated at 1 µg/ml)"},
      {"binder": "Fab clone 163.17 (Fab, V domains shown, Human IgG1 kappa Fab (MCO1 vector, soluble from E. coli HB2151), myc tag on the C terminus of the heavy chain) VH: VQLLEQSGAEVKRPGASVTISCRASRQDFSGQYIHWVRQAPGQGFEWMGIINPSGGSANYAPKFKGRLTMSRDSSTETVYMTLTSLTSEDTAVYYCLLQALKHWGQGTLVGPSS VL: not shown", "binding result": "no binding (tested: antigen coated at 1 µg/ml)"},
      {"binder": "Fab clone 163.24 (Fab, V domains shown, Human IgG1 kappa Fab (MCO1 vector, soluble from E. coli HB2151), myc tag on the C terminus of the heavy chain) VH: VQLLEQSGAEVKRPGASVTISCQASRQNFSGQYIHWVRQAPGQGLEWMGIINPSGGSANYAPRFKGRLSMSRDSSTDTAYLTLTSLTSEDTAVYFCLLQSLKHWGQGTLVAVSS VL: not shown", "binding result": "no binding (tested: antigen coated at 1 µg/ml)"}
    ]}
  ]
}
